Assay results from patent US20220396615A1 (published 2022).
One block for each binder: values may come before it.

What was measured:
[1] = molecular target: T1, Tag-free human IL6 recombinant protein (GenScript, Cat. No. Z03034) (human, UniProt P05231 30-212); assay: ELISA
[2] = molecular target: T1, Tag-free human IL6 recombinant protein …; assay: SPR (Biacore)

T1 sequence (P05231 30-212, one chain of several): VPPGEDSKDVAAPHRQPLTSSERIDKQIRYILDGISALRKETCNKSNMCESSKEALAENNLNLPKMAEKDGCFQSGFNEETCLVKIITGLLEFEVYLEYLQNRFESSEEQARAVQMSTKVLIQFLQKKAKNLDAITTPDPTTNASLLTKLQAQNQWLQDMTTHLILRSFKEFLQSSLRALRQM

B1: 29D6B5 (antibody, V domains shown)
VH: QVQLQQSGAELAEPGASVKMSCKASGYNFNNYWMHWVKQGPGQGLEWIGYIDPRTASIYYNQKFKDKATLTADKSSSTAYMQLSSLTSEDSAVYYCARILYGKYDVWGAGTTVIVSS
VL: DVVLTQTPLSLPVSLGNQASISCRSSQSLVDSNGNTYLHWYLQKPGQSPKVLIHKVSNRFSGVPDRFSGSGSGTDFTLKISRVEAEDLGVYFCSQSTHVPPTFGGGTKLEIK
EC50 [1]: 0.0231 µg/mL
Kd [2]: 1950 pM

B2: 23A9H3 (antibody, V domains shown)
VH: QVQLQQSGAELAKPGASVKMSCKTSGYTFTNYWMHWVKQRPGQGLEWIGYVIPSTGYTDYNQSFKDKATLTADKSSNTAYMQVNSLTSEDSAVYYCASLLPGFAYWGQGTLVTVSA
VL: DVVMTQTPLSLPVSLGDQASISCRSSQSLVDSNGNTYLHWYLQKPGQSPKLLIYKVSNRFSGVPDRFSGSGSGTDFTLKISRVEAEDLGVYFCSQSTHVPPTFGGGTKLEIK
EC50 [1]: 0.0163 µg/mL
Kd [2]: 8770 pM

B4: 49F10H6 (antibody, V domains shown)
VH: QVQLQQPGAELVKPGASVKMSCKASGYTFTNYIIHWIKQTPGQGLEWIGAIYPGNGDTSYSQKFKDKATLTADRSSSTAYMQLSSLTSEDSAVYYCARGDAGYSAWFAYWGQGTLVTVSA
VL: NIVLTQSPASLAVSLGQRATISCSASESVDSYGNNFMHWYQQRPGQPPKLLIYLASKLESGVPARFSGSGSRTEFTLTIDPVEAEDAATYYCQQNNEDPLTFGAGTKLELK
EC50 [1]: 0.0153 µg/mL
Kd [2]: 265 pM

The next binders have a lower Kd [2] than those just listed; values first:

Kd [2]: 0.0225 pM
B3: 53A2F9 (rat) (antibody, V domains shown)
VH: QVQLKESGPGLVQPSQTLSLTCTVSGFSLTSHTVSWIRQPPGRGLEWMGKMWSNGDTDYDSAIRSRLSITRDTSKSQVFLKINSLQTEDTAMYFCARYYFSSYGGGYFDYWGQGVMVTVSS
VL: DTVLTQSPALAVSLGQRVTISCRASKSVSTYMHWYQQKSGQQPKLLIYSASNLESGVPSRFSGSGSGTDFTLTIDPVEADDIANYYCQQSDELPDTFGAGTKLELK

EC50 [1]: 0.018 µg/mL
Kd [2]: 84.7 pM
B5: 41A10B8 (antibody, V domains shown)
VH: EVKLEESGGGLVQPGGSMKLSCAASGFTFSDAWMDWVRQSPDKGLEWVAEIRSKTYHPATYYTKSVRGRFTISRDDSKSSVYLQMNNLGAEDTGIYYCTRPRYYGGYFDYWGQGTTLTVSS
VL: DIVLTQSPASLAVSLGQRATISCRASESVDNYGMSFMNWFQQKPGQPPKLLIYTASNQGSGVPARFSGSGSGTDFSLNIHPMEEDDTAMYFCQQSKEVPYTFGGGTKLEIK

EC50 [1]: 0.0196 µg/mL
Kd [2]: 230 pM
B6: 61G1D8 (rat) (antibody, V domains shown)
VH: EVQLLESGGGLVQPGRSMKLSCAASGFTFSSFPMAWVRQTPSKALEWVATISPSGGTSYSRDSVKGRFTISRDNANSTLCLHMDSLKSEDTATYYCLRERIYNTYFDYWGQGVMVTVSS
VL: DIRMTHSPASLSASLGETVSIECLPSEDISSDLAWYQQKPGKSPQLLIYNANTLPNGVPSRFSGSRSGAQYFLKINSLQSEDVATYFCQQYDSYPYTFGTGTKLELK
